The record followed here is article PMC7278498, “Crystal structures of the GH18 domain of the bifunctional peroxiredoxin–chitinase CotE from Clostridium difficile” (Acta Crystallographica. Section F, Structural Biology …, 2020).

The target in series [1] is T1, pentapeptide Gly-Pro-Ala-Met-Lys (C. difficile).
T1 construct: residues 349 and 350 of CotE of Clostridium difficile; the side chain of residue 5 (Lys) is uncertain in the density; also called GPAMK; pentapeptide ligand; source: derived from the N-terminus of the E. coli-made CotE(349–712) after HRV 3C protease cleavage; co-purified and co-crystallised with the protein
Briefly: crystal structure; monoclinic form, P2_(1), 1.3 Å; 200 mM ammonium phosphate, 22.5% PEG 3350, 291 K; one protein molecule per asymmetric unit; peptide found in the active-site groove. The note with it: both partners purified.

Series [2] deals with the molecule itself. Briefly: crystal structure; hexagonal form, P6_(1)22, ∼2.1 Å; protein washed with 2 M guanidine hydrochloride on the Ni column (partially unfolded/refolded), tag then removed; 0.1 M sodium malonate pH 5.5, 13% PEG 3350, C8E5; dimer formed with a crystallographic symmetry mate.

B1: CotE(349–712), C-terminal fragment of CotE comprising the GH18 chitinase domain (domain or fragment)
chain: GPAMKTLKDSKKLVRPQITDPYNPIVENANCPDINPIVAEYVLGNPTNVDAQLLDAVIFAFAEIDQSGNLFIPYPRFLNQLLALKGEKPSLKVIVAIGGWGAEGFSDAALTPTSRYNFARQVNQMINEYALDGIDIDWEYPGSSASGITSRPQDRENFTLLLTAIRDVIGDDKWLSVAGTGDRGYINSSAEIDKIAPIIDYFNLMSYDFTAGETGPNGRKHQANLFDSDLSLPGYSVDAMVRNLENAGMPSEKILLGIPFYGRLGATITRTYDELRRDYINKNGYEYRFDNTAQVPYLVKDGDFAMSYDDALSIFLKTQYVLRNCLGGVFSWTSTYDQANILARTMSIGINDPEVLKEELEGIYGQF
notes: CotE spore coat protein (peroxiredoxin-chitinase) of Clostridium difficile, residues 349-712; In the monoclinic crystal the model holds Ile363-Phe712; In the hexagonal crystal the protein is a 3D domain-swapped dimer with an intermolecular Cys376-Cys670 disulfide; also called CotE chitinase domain; chitinase domain of CotE; source: E. coli BL21(DE3), purified (HisTrap, HRV 3C cleavage, second …)
For the molecule B1, the binding result in series [1] is “binds”. For the same molecule, the “stoichiometry N” value in series [2] amounted to 2.
